According to IntAct's records for PubMed 18550832:

Target: stk39_mouse Stk39 (UniProt Q9Z1W9)

“Serine/threonine-protein kinase WNK3 (Homo sapiens), Q9BYP7-2 F1337A” was tested, and the “effect of a mutation on the interaction” value was “disrupting interaction”.
